Laboratory results from the supplement of paper PMC10065799, “High-throughput profiling of sequence recognition by tyrosine kinases and SH2 domains using bacterial peptide display” (eLife, 2023).

Key:
Grb2 SH2 = Grb2 SH2 (UniProt P62993); assay: SH2 binding enrichment of the phosphorylated peptide, bacterial display (enrichment ratio); higher = better substrate or ligand; peptides without Tyr show the background
c-Src SH2 = assay: as above
SHP2-C SH2 = assay: as above
Fyn = Fyn (UniProt P06241); assay: phosphorylation enrichment, bacterial display (enrichment ratio); higher = better substrate or ligand; peptides without Tyr show the background
Sequence of Fyn (P06241 whole entry, looked up): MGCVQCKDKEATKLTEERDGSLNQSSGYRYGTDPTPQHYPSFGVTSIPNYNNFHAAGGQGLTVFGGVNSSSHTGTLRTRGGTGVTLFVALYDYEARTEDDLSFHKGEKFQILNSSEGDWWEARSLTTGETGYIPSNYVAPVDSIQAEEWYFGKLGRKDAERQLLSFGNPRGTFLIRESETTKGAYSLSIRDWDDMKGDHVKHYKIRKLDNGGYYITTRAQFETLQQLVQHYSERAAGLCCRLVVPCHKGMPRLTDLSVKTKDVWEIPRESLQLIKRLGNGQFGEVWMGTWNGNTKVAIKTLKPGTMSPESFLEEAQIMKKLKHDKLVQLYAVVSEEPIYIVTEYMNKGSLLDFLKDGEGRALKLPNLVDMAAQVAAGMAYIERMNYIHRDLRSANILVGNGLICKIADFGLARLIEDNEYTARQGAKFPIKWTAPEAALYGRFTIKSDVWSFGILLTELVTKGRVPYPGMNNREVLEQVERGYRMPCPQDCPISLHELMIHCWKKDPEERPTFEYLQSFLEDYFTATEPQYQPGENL

c-Abl (mouse) = assay: as above
Fer (mouse) = assay: as above
EPHB1 = EPHB1 (UniProt P54762); assay: as above
AncSZ = assay: as above
FGFR3 = FGFR3 (UniProt P22607); assay: as above
Sequence of FGFR3 (P22607 whole entry, looked up): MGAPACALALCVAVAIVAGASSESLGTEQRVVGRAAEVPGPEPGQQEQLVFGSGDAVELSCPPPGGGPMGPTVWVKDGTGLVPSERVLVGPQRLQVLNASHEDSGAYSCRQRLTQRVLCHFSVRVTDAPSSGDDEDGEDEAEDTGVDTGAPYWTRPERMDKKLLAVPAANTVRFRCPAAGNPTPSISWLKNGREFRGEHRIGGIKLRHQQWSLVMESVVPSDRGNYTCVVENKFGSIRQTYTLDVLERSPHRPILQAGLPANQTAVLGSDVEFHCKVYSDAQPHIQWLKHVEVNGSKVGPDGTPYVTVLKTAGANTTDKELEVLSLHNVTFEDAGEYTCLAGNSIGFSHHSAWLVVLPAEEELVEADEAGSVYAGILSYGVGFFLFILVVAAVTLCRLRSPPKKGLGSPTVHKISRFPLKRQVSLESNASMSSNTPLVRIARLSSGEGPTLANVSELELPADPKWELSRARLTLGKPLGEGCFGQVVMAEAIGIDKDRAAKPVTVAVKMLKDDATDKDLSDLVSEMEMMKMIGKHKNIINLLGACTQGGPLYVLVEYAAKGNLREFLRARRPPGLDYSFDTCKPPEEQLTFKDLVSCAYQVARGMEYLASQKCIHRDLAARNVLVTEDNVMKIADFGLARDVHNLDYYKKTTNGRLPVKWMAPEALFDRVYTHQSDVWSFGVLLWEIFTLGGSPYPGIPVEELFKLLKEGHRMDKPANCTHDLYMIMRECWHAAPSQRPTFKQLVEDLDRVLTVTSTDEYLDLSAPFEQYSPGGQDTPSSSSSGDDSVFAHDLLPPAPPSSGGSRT

c-Src = assay: as above
Hck = Hck (UniProt P08631); assay: as above
Sequence of Hck (P08631 whole entry, looked up): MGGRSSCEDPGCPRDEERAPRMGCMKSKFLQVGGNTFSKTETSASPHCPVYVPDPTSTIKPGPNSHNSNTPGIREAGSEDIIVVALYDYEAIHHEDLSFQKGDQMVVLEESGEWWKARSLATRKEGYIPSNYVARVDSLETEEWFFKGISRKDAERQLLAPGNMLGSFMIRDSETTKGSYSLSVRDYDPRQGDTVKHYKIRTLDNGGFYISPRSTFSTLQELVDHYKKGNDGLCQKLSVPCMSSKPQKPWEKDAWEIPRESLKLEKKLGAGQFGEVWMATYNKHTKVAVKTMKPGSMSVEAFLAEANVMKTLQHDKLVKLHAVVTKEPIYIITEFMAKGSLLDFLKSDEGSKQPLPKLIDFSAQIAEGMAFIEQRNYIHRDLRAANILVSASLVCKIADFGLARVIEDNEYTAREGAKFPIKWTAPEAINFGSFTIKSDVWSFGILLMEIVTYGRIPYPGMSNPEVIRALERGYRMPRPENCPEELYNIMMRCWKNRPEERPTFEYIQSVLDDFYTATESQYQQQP

EPHB2 = EPHB2 (UniProt P29323); assay: as above
MERTK = MERTK (UniProt Q12866); assay: as above
Sequence of MERTK (Q12866 whole entry, looked up): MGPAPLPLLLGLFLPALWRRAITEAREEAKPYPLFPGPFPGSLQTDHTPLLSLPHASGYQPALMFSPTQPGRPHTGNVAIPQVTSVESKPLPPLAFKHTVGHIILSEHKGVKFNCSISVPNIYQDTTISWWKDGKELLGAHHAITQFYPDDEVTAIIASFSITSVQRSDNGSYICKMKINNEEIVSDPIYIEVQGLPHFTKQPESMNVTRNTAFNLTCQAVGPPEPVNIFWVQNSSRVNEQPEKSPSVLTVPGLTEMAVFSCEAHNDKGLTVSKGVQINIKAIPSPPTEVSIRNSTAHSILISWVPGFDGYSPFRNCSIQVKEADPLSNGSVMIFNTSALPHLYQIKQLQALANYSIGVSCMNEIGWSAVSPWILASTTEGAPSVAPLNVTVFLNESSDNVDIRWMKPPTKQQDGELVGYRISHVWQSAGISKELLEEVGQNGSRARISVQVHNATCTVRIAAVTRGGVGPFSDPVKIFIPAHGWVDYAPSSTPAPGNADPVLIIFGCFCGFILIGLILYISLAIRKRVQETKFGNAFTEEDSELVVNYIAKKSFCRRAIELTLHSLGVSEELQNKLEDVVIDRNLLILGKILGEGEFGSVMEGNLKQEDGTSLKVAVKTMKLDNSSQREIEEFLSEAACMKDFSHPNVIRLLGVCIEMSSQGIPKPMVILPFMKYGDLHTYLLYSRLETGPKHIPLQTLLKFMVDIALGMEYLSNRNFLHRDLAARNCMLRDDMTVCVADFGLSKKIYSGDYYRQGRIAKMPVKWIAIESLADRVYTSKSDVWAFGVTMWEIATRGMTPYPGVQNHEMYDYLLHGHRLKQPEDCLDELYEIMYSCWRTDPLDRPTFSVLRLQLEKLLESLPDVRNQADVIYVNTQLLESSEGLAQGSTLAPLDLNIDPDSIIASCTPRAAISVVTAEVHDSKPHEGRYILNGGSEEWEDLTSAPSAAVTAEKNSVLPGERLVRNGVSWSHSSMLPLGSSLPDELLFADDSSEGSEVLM

Jak2 = Jak2 (UniProt O60674); assay: as above
Sequence of Jak2 (O60674 whole entry, looked up): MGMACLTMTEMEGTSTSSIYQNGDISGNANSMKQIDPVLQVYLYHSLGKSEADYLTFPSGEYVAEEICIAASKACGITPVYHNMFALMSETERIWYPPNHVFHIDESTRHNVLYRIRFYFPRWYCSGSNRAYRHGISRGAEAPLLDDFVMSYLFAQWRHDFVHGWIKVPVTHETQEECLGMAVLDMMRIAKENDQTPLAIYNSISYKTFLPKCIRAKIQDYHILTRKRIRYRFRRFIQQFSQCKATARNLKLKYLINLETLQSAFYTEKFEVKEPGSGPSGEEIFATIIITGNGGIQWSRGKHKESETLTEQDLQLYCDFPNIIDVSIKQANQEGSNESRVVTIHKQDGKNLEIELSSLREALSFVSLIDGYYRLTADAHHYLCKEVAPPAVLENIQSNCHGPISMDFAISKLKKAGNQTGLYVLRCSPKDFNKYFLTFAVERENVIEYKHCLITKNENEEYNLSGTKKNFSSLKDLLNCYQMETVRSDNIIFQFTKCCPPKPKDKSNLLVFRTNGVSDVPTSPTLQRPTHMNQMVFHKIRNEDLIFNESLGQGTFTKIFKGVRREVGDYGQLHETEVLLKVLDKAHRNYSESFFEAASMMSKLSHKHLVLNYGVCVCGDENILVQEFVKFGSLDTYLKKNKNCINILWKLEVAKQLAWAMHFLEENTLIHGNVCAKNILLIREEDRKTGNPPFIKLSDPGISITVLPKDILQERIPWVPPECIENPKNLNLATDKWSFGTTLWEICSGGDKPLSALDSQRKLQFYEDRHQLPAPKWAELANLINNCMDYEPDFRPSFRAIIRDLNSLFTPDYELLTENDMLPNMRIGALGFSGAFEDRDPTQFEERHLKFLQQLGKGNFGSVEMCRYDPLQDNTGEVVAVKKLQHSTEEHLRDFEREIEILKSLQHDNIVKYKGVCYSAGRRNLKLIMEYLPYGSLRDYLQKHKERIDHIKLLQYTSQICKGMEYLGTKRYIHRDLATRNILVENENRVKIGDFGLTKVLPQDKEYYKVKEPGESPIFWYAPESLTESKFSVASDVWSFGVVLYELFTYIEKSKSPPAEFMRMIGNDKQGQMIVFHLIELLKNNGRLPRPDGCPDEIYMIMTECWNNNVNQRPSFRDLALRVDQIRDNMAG

Fes = Fes (UniProt P07332); assay: as above
Sequence of Fes (P07332 whole entry, looked up): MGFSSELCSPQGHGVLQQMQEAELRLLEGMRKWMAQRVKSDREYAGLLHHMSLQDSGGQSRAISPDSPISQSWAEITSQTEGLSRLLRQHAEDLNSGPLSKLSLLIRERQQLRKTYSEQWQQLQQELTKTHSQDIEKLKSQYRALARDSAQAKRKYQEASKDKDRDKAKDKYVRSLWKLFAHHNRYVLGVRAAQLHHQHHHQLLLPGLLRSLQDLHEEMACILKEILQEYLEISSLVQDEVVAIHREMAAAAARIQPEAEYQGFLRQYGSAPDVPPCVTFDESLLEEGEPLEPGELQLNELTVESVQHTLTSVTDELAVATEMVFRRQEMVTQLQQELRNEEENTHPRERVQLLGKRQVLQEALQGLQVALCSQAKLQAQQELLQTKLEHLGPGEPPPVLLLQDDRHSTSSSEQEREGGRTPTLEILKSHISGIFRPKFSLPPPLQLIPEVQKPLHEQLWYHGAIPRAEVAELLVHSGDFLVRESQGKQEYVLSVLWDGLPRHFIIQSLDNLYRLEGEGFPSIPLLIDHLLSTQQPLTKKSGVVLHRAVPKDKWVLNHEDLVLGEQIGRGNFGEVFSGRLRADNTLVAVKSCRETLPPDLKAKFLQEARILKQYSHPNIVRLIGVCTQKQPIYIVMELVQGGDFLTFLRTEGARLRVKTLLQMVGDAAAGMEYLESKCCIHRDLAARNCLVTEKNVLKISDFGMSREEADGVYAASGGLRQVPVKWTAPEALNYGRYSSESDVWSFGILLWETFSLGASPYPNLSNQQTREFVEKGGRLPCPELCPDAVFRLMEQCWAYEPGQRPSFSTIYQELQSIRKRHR

FGFR1 = FGFR1 (UniProt P11362); assay: as above
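Wherever SH2 binding enrichment of the phosphorylated peptide, bacterial display is given: peptide library displayed on the E. coli surface as eCPX fusions, selected cells deep-sequenced, score is each peptide's frequency after selection divided by its frequency in the input.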
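Wherever phosphorylation enrichment, bacterial display is given: 11-residue human phosphosite peptides and single-mutation variants displayed on the E. coli surface, counted by deep sequencing, each peptide's frequency after selection divided by its frequency in the unselected input library; frequency after pTyr selection over input frequency; kinase dosed for 20-30% of maximal phosphorylation in three min.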

Row | Sequence | SH2 binding enrichment (Grb2 SH2) | SH2 binding enrichment (c-Src SH2) | SH2 binding enrichment (SHP2-C SH2) | phosphorylation enrichment (Fyn) | phosphorylation enrichment (c-Abl (mouse)) | phosphorylation enrichment (Fer (mouse)) | phosphorylation enrichment (EPHB1) | phosphorylation enrichment (AncSZ) | phosphorylation enrichment (FGFR3) | phosphorylation enrichment (c-Src) | phosphorylation enrichment (Hck) | phosphorylation enrichment (EPHB2) | phosphorylation enrichment (MERTK) | phosphorylation enrichment (Jak2) | phosphorylation enrichment (Fes) | phosphorylation enrichment (FGFR1)
1 | TSYQMYDKGLV [IARS2_Y231_F227S] | 0.999 | 0.672 | 0.759 | 0.604 | 0.432 | 0.405 | 0.468 | 0.986 | 0.568 | 0.54 | 1.13 | 0.665 | 0.463 | 0.957 | 0.769 | 0.496
2 | QGIPRYHSQSP [FOXF1_Y331] | 0.733 | 0.537 | 0.562 | 0.796 | 1.4 | 0.744 | 0.783 | 1.01 | 0.677 | 1.08 | 1.02 | 0.849 | 1.22 | 0.691 | 1.58 | 0.821
3 | QRASDYYSQQM [GBP6_Y333_A331S] | 0.928 | 0.39 | 0.403 | 0.574 | 0.486 | 0.453 | 0.66 | 0.825 | 1.22 | 0.58 | 0.788 | 0.589 | 0.558 | 0.805 | 0.754 | 1.36
4 | NIQKKYFRAIL [CHD7_Y1217_YF] | 0.96 | 0.566 | 0.838 | 0.352 | 0.43 | 0.399 | 0.37 | 0.625 | 0.433 | 0.335 | 0.421 | 0.383 | 0.458 | 0.718 | 0.655 | 0.436
5 | FIIFIYAMKKK [SLCO1B1_Y645_L643F_YF] | 0.884 | 0.758 | 1.4 | 0.848 | 1.52 | 0.72 | 0.709 | 1.42 | 0.578 | 1.65 | 1.45 | 0.541 | 1.09 | 2.04 | 1.23 | 0.461
6 | KFGTNYRVGSS [CPO_Y278_YF] | 1.23 | 0.586 | 0.914 | 0.444 | 0.725 | 0.418 | 0.422 | 1.04 | 0.567 | 0.466 | 0.465 | 0.382 | 0.508 | 0.767 | 0.803 | 0.509
7 | KELANYYKLHH [AK7_Y390] | 0.825 | 0.697 | 0.622 | 0.453 | 0.497 | 0.383 | 4.12 | 0.708 | 1.83 | 0.509 | 0.495 | 1.89 | 0.844 | 2.44 | 0.685 | 2.93
8 | THLAPYSDELR [APOA1_Y190] | 0.723 | 0.437 | 0.909 | 0.51 | 0.521 | 0.442 | 0.51 | 0.722 | 0.594 | 0.434 | 0.481 | 0.582 | 0.467 | 0.688 | 0.968 | 0.46
9 | KFDLMYAKHAF [TUBA1A_Y399_R402H] | 0.847 | 0.527 | 0.772 | 0.435 | 0.573 | 1.07 | 0.521 | 0.794 | 0.564 | 0.44 | 0.438 | 0.543 | 0.408 | 0.805 | 0.987 | 0.397
10 | GMSQAYSFSQR [DES_Y5_S7F] | 0.818 | 0.476 | 0.747 | 0.389 | 0.454 | 0.338 | 0.317 | 0.761 | 0.481 | 0.495 | 0.379 | 0.453 | 0.721 | 0.551 | 0.755 | 0.392
11 | EIELAYRRRPP [GRIN2B_Y1109] | 0.642 | 0.387 | 0.569 | 0.45 | 0.437 | 0.458 | 0.448 | 0.661 | 0.455 | 0.353 | 0.433 | 0.451 | 0.385 | 0.556 | 0.587 | 0.41
12 | FFNSEYGELSE [FLT4_Y1337_YF] | 0.943 | 0.468 | 0.734 | 1.19 | 0.875 | 0.533 | 0.566 | 1.2 | 0.728 | 1.25 | 0.791 | 0.567 | 0.399 | 1.02 | 1.24 | 0.479
13 | PMDTFYDSTRG [DYNC2H1_Y2231_YF] | 1.04 | 1.08 | 0.646 | 0.982 | 0.582 | 1.43 | 0.919 | 1.08 | 0.806 | 0.664 | 1.71 | 1.04 | 0.501 | 0.892 | 1.05 | 0.714
14 | GYRVCYTPDSR [PTPRF_Y451_Y450C] | 0.769 | 0.591 | 0.717 | 0.498 | 0.794 | 0.505 | 0.635 | 1.07 | 0.739 | 0.522 | 0.547 | 0.592 | 0.434 | 0.975 | 1.26 | 0.492
15 | DDPRTYQKYGY [OAS1_Y362_R361T] | 0.866 | 0.598 | 0.833 | 0.43 | 0.572 | 0.41 | 0.458 | 0.74 | 0.555 | 0.549 | 0.492 | 0.611 | 0.421 | 0.635 | 0.76 | 0.446

Continued, in another order:

Row | SH2 binding enrichment (Grb2 SH2) | SH2 binding enrichment (c-Src SH2) | SH2 binding enrichment (SHP2-C SH2) | Sequence | phosphorylation enrichment (Fyn) | phosphorylation enrichment (c-Abl (mouse)) | phosphorylation enrichment (Fer (mouse)) | phosphorylation enrichment (EPHB1) | phosphorylation enrichment (AncSZ) | phosphorylation enrichment (FGFR3) | phosphorylation enrichment (c-Src) | phosphorylation enrichment (Hck) | phosphorylation enrichment (EPHB2) | phosphorylation enrichment (MERTK) | phosphorylation enrichment (Jak2) | phosphorylation enrichment (Fes) | phosphorylation enrichment (FGFR1)
16 | 0.858 | 0.587 | 0.9 | YAKSVYWDNTL [NUP107_Y296_E298D] | 0.599 | 0.557 | 0.871 | 0.621 | 0.848 | 0.576 | 0.736 | 0.678 | 0.515 | 0.435 | 0.69 | 0.839 | 0.515
17 | 0.745 | 0.382 | 0.803 | VEFAKYGSLQG [RET_Y809_R813Q_YF] | 0.556 | 0.619 | 0.44 | 0.536 | 0.663 | 0.578 | 0.546 | 0.741 | 0.471 | 0.384 | 0.846 | 0.9 | 0.43
18 | 0.65 | 0.337 | 0.547 | LGRGKSSEVFE [CSNK2A1_Y50_Y50S] | 0.646 | 0.835 | 0.593 | 0.341 | 0.923 | 0.661 | 0.653 | 0.517 | 0.605 | 0.639 | 0.996 | 1.01 | 0.438
19 | 0.814 | 0.499 | 1.05 | MDNQEYKDAYK [BRDT_Y331] | 0.417 | 0.677 | 0.456 | 0.546 | 0.932 | 0.652 | 0.368 | 0.474 | 0.402 | 0.445 | 0.901 | 1.12 | 0.485
20 | 0.995 | 0.473 | 0.731 | LPKVSYMKAID [GLRA1_Y307_V308M] | 0.694 | 0.967 | 0.65 | 0.632 | 0.941 | 0.77 | 0.574 | 0.406 | 0.711 | 0.484 | 0.707 | 0.911 | 0.481
21 | 0.746 | 3.65 | 0.545 | HRDDGYMPMSP [IRS1_Y612_T608R] | 0.572 | 0.756 | 0.683 | 0.577 | 0.785 | 0.715 | 0.589 | 0.488 | 0.53 | 0.37 | 1.16 | 0.817 | 0.534
22 | 0.769 | 0.817 | 0.819 | YGEYRYRSVIK [CFTR_Y517_D513G] | 7.2 | 0.745 | 0.49 | 0.458 | 0.714 | 0.644 | 4.36 | 3.67 | 0.462 | 0.463 | 0.599 | 0.826 | 0.454
23 | 0.806 | 0.557 | 0.694 | RNIQQHNSFVS [PRKAR1A_Y373_Y373H] | 0.443 | 0.438 | 0.379 | 0.604 | 0.601 | 0.448 | 0.367 | 0.378 | 0.343 | 0.329 | 0.461 | 0.451 | 0.42
24 | 1.19 | 0.858 | 1.1 | CTTIHYIFMCN [TP53_Y234_N235I_YF] | 0.418 | 0.695 | 0.436 | 0.511 | 0.946 | 0.657 | 0.324 | 0.331 | 0.554 | 0.327 | 0.918 | 1.05 | 0.416
25 | 0.779 | 0.597 | 0.742 | ERLWDYGMSSS [F8_Y1728] | 0.415 | 0.767 | 0.483 | 0.612 | 0.971 | 0.742 | 0.419 | 0.459 | 0.578 | 0.399 | 0.778 | 1.06 | 0.433
26 | 0.808 | 0.566 | 0.706 | REGAKYVSHGT [ASS1_Y113_A118T] | 0.363 | 0.517 | 0.375 | 0.513 | 0.73 | 0.482 | 0.411 | 0.37 | 0.587 | 0.663 | 0.898 | 0.969 | 0.493
27 | 1.28 | 0.944 | 1.15 | FFHCTYKKRMI [CLEC12A_Y242_YF] | 0.364 | 0.532 | 0.39 | 0.444 | 0.894 | 0.637 | 0.39 | 0.468 | 0.612 | 0.321 | 0.816 | 1.06 | 0.386
28 | 0.729 | 0.547 | 0.564 | VTAALYGCLYE [BTD_Y536_R538C] | 5.14 | 0.954 | 2.67 | 1.34 | 1.34 | 0.825 | 4.26 | 4.01 | 1.47 | 2.11 | 1.24 | 1.43 | 0.558
29 | 1.25 | 0.688 | 0.778 | TARWEYMHSPS [CPOX_Y429] | 0.387 | 0.363 | 0.334 | 0.965 | 0.927 | 0.69 | 1.14 | 0.356 | 0.624 | 1.08 | 1.23 | 2.01 | 0.536
